Test results taken from publication PMC5064372.

How the values were obtained:
[1] = target: catalytically inactive mouse neutrophil elastase (Ser195Ala) with a C-terminal cysteine tag, fluorescently labelled (mouse); experiment: MST; AAT serially diluted (titrated), 5 nM fluorescently labelled inactive NE, in 7.5% plasma pool from individuals with high FEV1 (>=80%, n = 8); storage buffer (20 mM Na2HPO4, 300 mM NaCl pH 7.4) with Tween 20, 22 °C, 2 h incubation; global fit of four measurements
[2] = target: catalytically inactive mouse neutrophil elastase (Ser195Ala) with a C-terminal cysteine tag, fluorescently labelled (mouse); experiment: MST; AAT serially diluted (titrated), 5 nM fluorescently labelled inactive NE, in 7.5% plasma pool from individuals with low FEV1 (<=50%, n = 12); storage buffer (20 mM Na2HPO4, 300 mM NaCl pH 7.4) with Tween 20, 22 °C, 2 h incubation; global fit of four measurements

Kd [1]: 500 nM
Kd [2]: 1300 nM
Substance: recombinant Z-variant alpha-1-antitrypsin (Glu342Lys) with three stabilizing mutations (Met374Ile, Ser381Ala, Lys387Arg) on the M1(Ala213) background (from UniProt P01009 25-418) (natural protein)
